According to the supplement of paper PMC11316812:
± gives the standard deviation of the averaged measurements.

What was measured:
MCF7 = assay: percentage of EdU-negative (G0-arrested) nuclei per well, 72 h; higher = more G0 arrest; settings: reference: sequence is the full UniProt precursor, the tested protein was the secreted form or ectodomain
hTERT-HMEC = assay: as above; settings: reference: sequence is the full UniProt precursor, the tested protein was the secreted form or ectodomain
[1] = protein concentration 0.00825 µM
[2] = protein concentration 0.0825 µM
[3] = protein concentration 0.0225 µM
[4] = protein concentration 0.0308571 µM
[5] = protein concentration 0.308571 µM
[6] = protein concentration 0.00775 µM
[7] = protein concentration 0.0775 µM
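Further: secreted proteins added to cultured cells, EdU pulse at the end, nuclei found by Hoechst imaging, EdU status from nuclear versus surrounding ring intensity ratio, PBS as neutral control.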

MKQKMMARLLRTSFALLFLGLFGVLGAATISCRNEEGKAVDWFTFYKLPKRQNKESGETGLEYLYLDSTTRSWRKSEQLMNDTKSVLGRTLQQLYEAYASKSNNTAYLIYNDGVPKPVNYSRKYGHTKGLLLWNRVQGFWLIHSIPQFPPIPEEGYDYPPTGRRNGQSGICITFKYNQYEAIDSQLLVCNPNVYSCSIPATFHQELIHMPQLCTRASSSEIPGRLLTTLQSAQGQKFLHFAKSDSFLDDIFAAWMAQRLKTHLLTETWQRKRQELPSNCSLPYHVYNIKAIKLSRHSYFSSYQDHAKWCISQKGTKNRWTCIGDLNRSPHQAFRSGGFICTQNWQIYQAFQGLVLYYESCK [Q8WZ79]
percentage of EdU-negative (MCF7; [1]): 28.9 ± 1.8%
percentage of EdU-negative (MCF7; [2]): 32.3 ± 0.53%
percentage of EdU-negative (hTERT-HMEC; [1]): 5.48 ± 0.48%
percentage of EdU-negative (hTERT-HMEC; [2]): 15.5 ± 1.6%

MLLLINVILTLWVSCANGQEVKPCDFPEIQHGGLYYKSLRRLYFPAAAGQSYSYYCDQNFVTPSGSYWDYIHCTQDGWSPTVPCLRTCSKSDVEIENGFISESSSIYILNEETQYNCKPGYATAEGNSSGSITCLQNGWSTQPICIKFCDMPVFENSRAKSNGMWFKLHDTLDYECYDGYESSYGNTTDSIVCGEDGWSHLPTCYNSSENCGPPPPISNGDTTSFPQKVYLPWSRVEYQCQSYYELQGSKYVTCSNGDWSEPPRCISMKPCEFPEIQHGHLYYENTRRPYFPVATGQSYSYYCDQNFVTPSGSYWDYIHCTQDGWLPTVPCLRTCSKSDIEIENGFISESSSIYILNKEIQYKCKPGYATADGNSSGSITCLQNGWSAQPICIKFCDMPVFENSRAKSNGMRFKLHDTLDYECYDGYEISYGNTTGSIVCGEDGWSHFPTCYNSSEKCGPPPPISNGDTTSFLLKVYVPQSRVEYQCQSYYELQGSNYVTCSNGEWSEPPRCIHPCIITEENMNKNNIQLKGKSDIKYYAKTGDTIEFMCKLGYNANTSVLSFQAVCREGIVEYPRCE
percentage of EdU-negative (MCF7; [3]): 24.7 ± 2.6%
percentage of EdU-negative (MCF7; protein concentration 0.225 µM): 28.7 ± 0.4%
percentage of EdU-negative (hTERT-HMEC; [3]): 4.84 ± 0.38%
percentage of EdU-negative (hTERT-HMEC; protein concentration 0.225 µM): 4.68 ± 0.36%

MPLGLLWLGLALLGALHAQAQDSTSDLIPAPPLSKVPLQQNFQDNQFQGKWYVVGLAGNAILREDKDPQKMYATIYELKEDKSYNVTSVLFRKKKCDYWIRTFVPGCQPGEFTLGNIKSYPGLTSYLVRVVSTNYNQHAMVFFKKVSQNREYFKITLYGRTKELTSELKENFIRFSKSLGLPENHIVFPVPIDQCIDG
percentage of EdU-negative (MCF7; [4]): 26.8 ± 1.9%
percentage of EdU-negative (MCF7; [5]): 28.2 ± 1.9%
percentage of EdU-negative (hTERT-HMEC; [4]): 4.56 ± 0.62%
percentage of EdU-negative (hTERT-HMEC; [5]): 8.76 ± 0.27%

MRRRRAGGRTMVERASKFVLVVAGSVCFMLILYQYAGPGLSLGAPGGRAPPDDLDLFPTPDPHYEKKYYFPVRELERSLRFDMKGDDVIVFLHIQKTGGTTFGRHLVQNVRLEVPCDCRPGQKKCTCYRPNRRETWLFSRFSTGWSCGLHADWTELTNCVPGVLDRRDSAALRTPRKFYYITLLRDPVSRYLSEWRHVQRGATWKTSLHMCDGRTPTPEELPPCYEGTDWSGCTLQEFMDCPYNLANNRQVRMLADLSLVGCYNLSFIPEGKRAQLLLESAKKNLRGMAFFGLTEFQRKTQYLFERTFNLKFIRPFMQYNSTRAGGVEVDEDTIRRIEELNDLDMQLYDYAKDLFQQRYQYKRQLERREQRLRSREERLLHRAKEALPREDADEPGRVPTEDYMSHIIEKW
percentage of EdU-negative (MCF7; protein concentration 0.01 µM): 25.6 ± 0.82%
percentage of EdU-negative (MCF7; protein concentration 0.1 µM): 28.9 ± 4%
percentage of EdU-negative (hTERT-HMEC; protein concentration 0.01 µM): 5.25 ± 0.85%
percentage of EdU-negative (hTERT-HMEC; protein concentration 0.1 µM): 31.7 ± 5.8%

MICLVLTIFANLFPAACTGAHERTFLAVKPDGVQRRLVGEIVRRFERKGFKLVALKLVQASEELLREHYAELRERPFYGRLVKYMASGPVVAMVWQGLDVVRTSRALIGATNPADAPPGTIRGDFCIEVGKNLIHGSDSVESARREIALWFRADELLCWEDSAGHWLYE
percentage of EdU-negative (MCF7; [3]): 25.5 ± 3.9%
percentage of EdU-negative (MCF7; protein concentration 0.225 µM): 22.9 ± 1.8%
percentage of EdU-negative (hTERT-HMEC; [3]): 4.25 ± 0.15%
percentage of EdU-negative (hTERT-HMEC; protein concentration 0.225 µM): 5.77 ± 0.68%

MLALLVLVTVALASAHHGGEHFEGEKVFRVNVEDENHINIIRELASTTQIDFWKPDSVTQIKPHSTVDFRVKAEDTVTVENVLKQNELQYKVLISNLRNVVEAQFDSRVRATGHSYEKYNKWETIEAWTQQVATENPALISRSVIGTTFEGRAIYLLKVGKAGQNKPAIFMDCGFHAREWISPAFCQWFVREAVRTYGREIQVTELLDKLDFYVLPVLNIDGYIYTWTKSRFWRKTRSTHTGSSCIGTDPNRNFDAGWCEIGASRNPCDETYCGPAAESEKETKALADFIRNKLSSIKAYLTIHSYSQMMIYPYSYAYKLGENNAELNALAKATVKELASLHGTKYTYGPGATTIYPAAGGSDDWAYDQGIRYSFTFELRDTGRYGFLLPESQIRATCEETFLAIKYVASYVLEHLY
percentage of EdU-negative (MCF7; [3]): 24.5 ± 1.1%
percentage of EdU-negative (MCF7; protein concentration 0.225 µM): 25.4 ± 0.42%
percentage of EdU-negative (hTERT-HMEC; [3]): 5.24 ± 0.55%
percentage of EdU-negative (hTERT-HMEC; protein concentration 0.225 µM): 5.32 ± 0.42%

MPERLAEMLLDLWTPLIILWITLPPCIYMAPMNQSQVLMSGSPLELNSLGEEQRILNRSKRGWVWNQMFVLEEFSGPEPILVGRLHTDLDPGSKKIKYILSGDGAGTIFQINDVTGDIHAIKRLDREEKAEYTLTAQAVDWETSKPLEPPSEFIIKVQDINDNAPEFLNGPYHATVPEMSILGTSVTNVTATDADDPVYGNSAKLVYSILEGQPYFSIEPETAIIKTALPNMDREAKEEYLVVIQAKDMGGHSGGLSGTTTLTVTLTDVNDNPPKFAQSLYHFSVPEDVVLGTAIGRVKANDQDIGENAQSSYDIIDGDGTALFEITSDAQAQDGIIRLRKPLDFETKKSYTLKVEAANVHIDPRFSGRGPFKDTATVKIVVEDADEPPVFSSPTYLLEVHENAALNSVIGQVTARDPDITSSPIRFSIDRHTDLERQFNINADDGKITLATPLDRELSVWHNITIIATEIRNHSQISRVPVAIKVLDVNDNAPEFASEYEAFLCENGKPGQVIQTVSAMDKDDPKNGHYFLYSLLPEMVNNPNFTIKKNEDNSLSILAKHNGFNRQKQEVYLLPIIISDSGNPPLSSTSTLTIRVCGCSNDGVVQSCNVEAYVLPIGLSMGALIAILACIILLLVIVVLFVTLRRHKNEPLIIKDDEDVRENIIRYDDEGGGEEDTEAFDIATLQNPDGINGFLPRKDIKPDLQFMPRQGLAPVPNGVDVDEFINVRLHEADNDPTAPPYDSIQIYGYEGRGSVAGSLSSLESTTSDSDQNFDYLSDWGPRFKRLGELYSVGESDKET
percentage of EdU-negative (MCF7; [6]): 27.78 ± 0.12%
percentage of EdU-negative (MCF7; [7]): 34.9 ± 1.6%
percentage of EdU-negative (hTERT-HMEC; [6]): 5.37 ± 0.11%
percentage of EdU-negative (hTERT-HMEC; [7]): 5.69 ± 0.22%
